Reference: patent US20230002460A1 (YUHAN, published 2023)
Numbering of substitutions follows the chain as printed. Names may count otherwise.

B1: long-acting GDF15 fusion protein (dimer) FWT + Fc_hole (ΔN2) (Fc fusion)
chain 1: APALAGGPSVFLFPPKPKDTLMISRTPEVTCVVVDVSHEDPEVKFNWYVDGVEVHNAKTKPREEQYNSTYRVVSVLTVLHQDWLNGKEYKCKVSNKALPAPIEKTISKAKGQPREPQVYTLPPSREEMTKNQVSLWCLVKGFYPSDIAVEWESNGQPENNYKTTPPVLDSDGSFFLYSKLTVDKSRWQQGNVFSCSVMHEALHNHYTQKSLSLSPGKGGGGSGGGGSGGGGSGGGGSGGGGSNGDHCPLGPGRCCRLHTVRASLEDLGWADWVLSPREVQVTMCIGACPSQFRAANMHAQIKTSLHRLKPDTVPAPCCVPASYNPMVLIQKTDTGVSLQTYDDLLAKDCHCI
chain 2: not shown
B2: long-acting GDF15 fusion protein (dimer) FM4 + Fc_hole (ΔN2, N56C, D103C) (Fc fusion)
chain 1: B1 chain 1 with N296C, D343C
chain 2: not shown
B3: long-acting GDF15 fusion protein (dimer) FM4-3 + Fc_hole (ΔN2, N56L) (Fc fusion)
chain 1: B1 chain 1 with N296L
chain 2: not shown
B4: long-acting GDF15 fusion protein (dimer) FM4-1 + Fc_hole (ΔN2, N56S, D103S) (Fc fusion)
chain 1: B1 chain 1 with N296S, D343S
chain 2: not shown
B5: long-acting GDF15 fusion protein (dimer) FM4-2 + Fc_hole (ΔN2, D103L) (Fc fusion)
chain 1: B1 chain 1 with D343L
chain 2: not shown
B6: long-acting GDF15 fusion protein (dimer) FM15 + Fc_hole (ΔN2, S64E) (Fc fusion)
chain 1: B1 chain 1 with S304E
chain 2: not shown
B7: long-acting GDF15 fusion protein (dimer) FM13 + Fc_hole (ΔN2, S64N) (Fc fusion)
chain 1: B1 chain 1 with S304N
chain 2: not shown
B8: long-acting GDF15 fusion protein (dimer) FM9 + Fc_hole (ΔN2, S64R) (Fc fusion)
chain 1: B1 chain 1 with S304R
chain 2: not shown
B9: long-acting GDF15 fusion protein (dimer) FM14 + Fc_hole (ΔN2, S64D) (Fc fusion)
chain 1: B1 chain 1 with S304D
chain 2: not shown

Each binder was assayed against T1, GDF15 receptors GFRAL and RET, overexpressed together on HEK293 cells (UniProt Q6UXV0 19-394; P07949 29-1114, limits assumed) (assay: cell-based or functional assay).
T1 sequence (Q6UXV0 19-394 limits assumed, chain 1 of 2): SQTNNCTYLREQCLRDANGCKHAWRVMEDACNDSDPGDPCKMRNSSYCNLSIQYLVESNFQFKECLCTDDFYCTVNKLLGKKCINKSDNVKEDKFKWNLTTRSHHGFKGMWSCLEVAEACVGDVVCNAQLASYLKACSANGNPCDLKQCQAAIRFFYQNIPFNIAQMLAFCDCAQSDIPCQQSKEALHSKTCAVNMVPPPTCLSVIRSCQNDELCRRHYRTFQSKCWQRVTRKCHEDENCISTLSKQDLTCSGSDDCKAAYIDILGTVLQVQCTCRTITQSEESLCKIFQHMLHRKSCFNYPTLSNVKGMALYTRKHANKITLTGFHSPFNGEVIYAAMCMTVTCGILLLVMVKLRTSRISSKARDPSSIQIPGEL
T1 sequence (P07949 29-1114 limits assumed, chain 2 of 2): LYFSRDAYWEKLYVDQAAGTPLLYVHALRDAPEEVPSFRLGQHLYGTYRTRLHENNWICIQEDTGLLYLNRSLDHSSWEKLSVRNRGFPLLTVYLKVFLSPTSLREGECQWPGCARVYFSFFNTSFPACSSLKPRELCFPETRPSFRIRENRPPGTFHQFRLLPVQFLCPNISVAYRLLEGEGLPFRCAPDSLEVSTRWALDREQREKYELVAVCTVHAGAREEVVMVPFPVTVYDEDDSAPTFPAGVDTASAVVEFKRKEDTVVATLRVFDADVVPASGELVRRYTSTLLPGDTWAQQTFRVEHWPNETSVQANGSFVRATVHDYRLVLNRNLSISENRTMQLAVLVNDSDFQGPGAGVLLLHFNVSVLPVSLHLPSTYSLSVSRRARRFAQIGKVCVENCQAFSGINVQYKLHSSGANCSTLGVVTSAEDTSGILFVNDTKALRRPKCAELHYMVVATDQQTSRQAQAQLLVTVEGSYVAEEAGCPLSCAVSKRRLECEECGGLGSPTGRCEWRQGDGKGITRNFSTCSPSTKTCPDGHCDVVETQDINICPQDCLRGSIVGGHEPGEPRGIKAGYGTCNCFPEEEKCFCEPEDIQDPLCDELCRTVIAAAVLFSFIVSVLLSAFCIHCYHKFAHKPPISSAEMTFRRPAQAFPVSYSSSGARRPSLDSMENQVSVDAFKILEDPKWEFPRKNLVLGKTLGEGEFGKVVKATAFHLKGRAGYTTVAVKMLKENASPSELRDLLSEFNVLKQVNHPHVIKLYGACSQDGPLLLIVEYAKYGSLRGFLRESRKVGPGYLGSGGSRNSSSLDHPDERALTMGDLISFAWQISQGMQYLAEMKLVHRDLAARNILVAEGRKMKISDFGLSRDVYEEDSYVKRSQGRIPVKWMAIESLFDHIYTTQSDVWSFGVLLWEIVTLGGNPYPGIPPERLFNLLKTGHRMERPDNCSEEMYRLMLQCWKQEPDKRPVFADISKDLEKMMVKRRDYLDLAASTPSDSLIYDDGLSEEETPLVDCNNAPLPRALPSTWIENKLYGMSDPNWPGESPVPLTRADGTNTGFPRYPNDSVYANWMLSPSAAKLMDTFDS

EC50 [nM]	Emax (%) [relative to FWT 100%] [%]	Binder
7	100	B1
3.4	133	B2

Target: T1, GDF15 receptors GFRAL and RET, …
Experiment: cell-based or functional assay
Remark: another data set of the same source

EC50 [nM]	Emax (%) [relative to FWT 100%] [%]	Binder
5.4	100	B1
140	34.3	B3
8.9	86.4	B4
10.6	110	B5
3.6	140	B2

Target: T1, GDF15 receptors GFRAL and RET, …
Experiment: cell-based or functional assay
Remark: another data set of the same source

EC50 [nM]	Emax (%) [relative to FWT 100%] [%]	Binder
7.3	100	B1
33.6	41	B6
9.6	93.3	B7
5	123	B8
7.9	48.2	B9
